Consider one substance from article PMC4546420.

The target in this assay is MBP-linker-MPR-TM (HIV-1) (UniProt P04578). Description: SEC; Superdex-200 HR 10/300, 20 mM NaCl, 20 mM Tris-HCl pH 7.5, 0.015% beta-DDM; calibrated with protein standards; protein in beta-DDM micelles.

“MBP-linker-MPR-TM (from UniProt P04578 649-705) (domain or fragment)”: the stoichiometry N (usually a count of units in the complex or per binding partner) is > 6.
